Assay results from article PMC5927464 (2018).

T1: mouse RNase L (Mus musculus (mouse)) (UniProt Q05921)
T1 sequence: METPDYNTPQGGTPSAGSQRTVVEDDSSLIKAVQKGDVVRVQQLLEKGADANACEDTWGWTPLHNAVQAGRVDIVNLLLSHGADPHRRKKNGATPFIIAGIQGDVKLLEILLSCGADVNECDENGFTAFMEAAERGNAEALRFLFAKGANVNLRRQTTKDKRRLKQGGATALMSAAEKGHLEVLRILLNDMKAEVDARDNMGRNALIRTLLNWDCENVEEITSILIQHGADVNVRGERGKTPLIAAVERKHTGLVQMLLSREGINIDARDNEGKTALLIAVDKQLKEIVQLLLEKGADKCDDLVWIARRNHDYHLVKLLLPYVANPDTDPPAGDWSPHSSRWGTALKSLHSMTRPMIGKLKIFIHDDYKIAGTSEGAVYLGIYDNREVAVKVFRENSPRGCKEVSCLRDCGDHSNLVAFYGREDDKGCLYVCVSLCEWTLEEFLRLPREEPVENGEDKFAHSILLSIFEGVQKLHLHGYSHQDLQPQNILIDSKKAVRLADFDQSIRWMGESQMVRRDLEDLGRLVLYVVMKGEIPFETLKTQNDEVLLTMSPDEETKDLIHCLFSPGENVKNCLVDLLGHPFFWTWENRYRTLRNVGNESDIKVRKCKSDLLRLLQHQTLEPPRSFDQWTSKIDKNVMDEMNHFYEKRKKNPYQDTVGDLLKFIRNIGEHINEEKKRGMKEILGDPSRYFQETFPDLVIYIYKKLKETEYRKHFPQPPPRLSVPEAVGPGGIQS

T2: purified recombinant GST-tagged murine RNase L (mouse, UniProt Q05921 1-735)
T2 chain: T1 sequence

B1: (His)6-L* (purified recombinant L*DA) (natural protein)
chain: MDTQMCALFAQPLTLLPDLNICSWQTVNGSQRTFFVWTWTMTSSGLRTRAINLKQWNGLTYRSYAILSWNPRETPLHLTRVTPSPQVTKGSLLTTSIPINTKIQLICLPAVAMLATPPKTTDNCRTSWAALQMLLLLWHLSSWIKTQRRWRISLTE
B2: purified recombinant mouse RNase L (enzyme)
chain: T1 sequence

How the values were obtained:
[1] = target: T1, mouse RNase L (Mus musculus (mouse)); experiment: SPR competition; conditions: 2'-5' phosphodiester linkages; 5'-triphosphate; trimer p3A2'p5'A2'p5'A assumed (oligomer length used in SPR not stated); SPR on Biacore 3000; HBS-P SPR buffer (0.005% surfactant P20), 10 ul/min, 3 min association, 5 min dissociation, 25 C stated for GST-RNase L capture; 1:1 …
[2] = target: T2, purified recombinant GST-tagged murine …; experiment: SPR; immobilized mouse RNase L
[3] = target: T2, purified recombinant GST-tagged murine …; experiment: SPR; immobilized mouse RNase L
[4] = target: T2, purified recombinant GST-tagged murine …; experiment: SPR; immobilized mouse RNase L
[5] = target: B1; experiment: SPR; immobilized L*
[6] = target: B1; experiment: SPR; immobilized L*
[7] = target: (His)6-L* (purified recombinant L*DA) (Theiler's murine encephalomyelitis virus, strain DA); experiment: SPR; Biacore 3000; (His)6-L* immobilized on Ni-NTA chips, mouse or human RNase L injected; 10 μl/min, 3 min association, 5 min dissociation; 1:1 Langmuir model, global fitting

AAA [2-5A (unlabeled)] was tested, and the IC50 [1] was 13.2 nM.

Work on B1 yielded a koff [2] of 0.0015 s⁻¹, a Kd [3] of 490 nM and a Ka [4] of 2e+06 M⁻¹.

B2 gave a koff [5] of 0.0027 s⁻¹, a Ka [6] of 760000 M⁻¹ and a Kd [7] of 1300 nM.
